Among the data in patent US20260193334A1 (ZOETIS SERVICES, published 2026) are Kd values, retold here.

Assay [1] has as its target T1, canine FcRn complex (FcRn-α subunit and β-microglobulin) (canine, UniProt A0A8I3PFR8 25-347, biotin labeled through BirA enzymatic reaction in Example 5). The assay can be described thus: SPR (Biacore), FcRn amine-coupled on CM5, IgG as analyte, pH 7.2, 15 C. A general note: Surface plasmon resonance follows binding to a sensor surface in real time, without labels.
Assay [2] concerns the target T1, canine FcRn complex (FcRn-α subunit and …). The assay can be described thus: SPR (Biacore), FcRn amine-coupled on CM5, IgG as analyte, pH 6, 15 C.

T1 sequence (A0A8I3PFR8 entry or part of it, one chain of several): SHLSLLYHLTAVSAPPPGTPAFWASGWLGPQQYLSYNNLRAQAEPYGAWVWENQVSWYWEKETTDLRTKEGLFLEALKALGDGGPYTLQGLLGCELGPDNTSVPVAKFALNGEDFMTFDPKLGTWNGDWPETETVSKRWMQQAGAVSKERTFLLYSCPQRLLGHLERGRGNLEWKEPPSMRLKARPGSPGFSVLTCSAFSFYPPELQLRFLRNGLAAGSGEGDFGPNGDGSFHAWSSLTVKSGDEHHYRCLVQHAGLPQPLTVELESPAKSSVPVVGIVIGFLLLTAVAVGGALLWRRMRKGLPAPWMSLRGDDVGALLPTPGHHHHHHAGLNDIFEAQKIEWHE

B1: anti-TGFβ antibody ZTS-4155, canine IgGB (65), N434M (antibody)
chain 1: EVQLVQSGAEVKKPGASVKVSCKTSGYTFITYWMNWVRQAPGAGLDWMGQIFPASGSTNYNEMFEGRVTLTADTSTSTAYMELSSLRAGDIAVYYCARGDGNYALDAMDYWGQGTLVTVSSASTTAPSVFPLAPSCGSTSGSTVALACLVSGYFPEPVTVSWNSGSLTSGVHTFPSVLQSSGLYSLSSMVTVPSSRWPSETFTCNVAHPASKTKVDKPVPKRENGRVPRPPDCPKCPAPEMLGGPSVFIFPPKPKDTLLIARTPEVTCVVVDLDPEDPEVQISWFVDGKQMQTAKTQPREEQFNGTYRVVSVLPIGHQDWLKGKQFTCKVNNKALPSPIERTISKARGQAHQPSVYVLPPSREELSKNTVSLTCLIKDFFPPDIDVEWQSNGQQEPESKYRTTPPQLDEDGSYFLYSKLSVDKSRWQRGDTFICAVMHEALHMHYTQESLSHSPGK
chain 2: DIVMTQTPPSLSVSPRETASISCRASESVDSYGNSFMHWYLQKPGQSPQLLIYLASNLESGVSDRFSGSGSGTDFTLRISRVEANDTGVYYCQQNNEDPLTFGQGTKLEIKRNDAQPAVYLFQPSPDQLHTGSASVVCLLNSFYPKDINVKWKVDGVIQDTGIQESVTEQDKDSTYSLSSTLTMSSTEYLSHELYSCEITHKSLPSTLIKSFQRSEC
Regarding B1, the results for the equilibrium dissociation constant (Kd) in assay [1] and in assay [2] were 11 nM and 18.8 nM, respectively.

B2: anti-TGFβ antibody ZTS-4155, canine IgGB (65), N434T (antibody)
chain 1: EVQLVQSGAEVKKPGASVKVSCKTSGYTFITYWMNWVRQAPGAGLDWMGQIFPASGSTNYNEMFEGRVTLTADTSTSTAYMELSSLRAGDIAVYYCARGDGNYALDAMDYWGQGTLVTVSSASTTAPSVFPLAPSCGSTSGSTVALACLVSGYFPEPVTVSWNSGSLTSGVHTFPSVLQSSGLYSLSSMVTVPSSRWPSETFTCNVAHPASKTKVDKPVPKRENGRVPRPPDCPKCPAPEMLGGPSVFIFPPKPKDTLLIARTPEVTCVVVDLDPEDPEVQISWFVDGKQMQTAKTQPREEQFNGTYRVVSVLPIGHQDWLKGKQFTCKVNNKALPSPIERTISKARGQAHQPSVYVLPPSREELSKNTVSLTCLIKDFFPPDIDVEWQSNGQQEPESKYRTTPPQLDEDGSYFLYSKLSVDKSRWQRGDTFICAVMHEALHTHYTQESLSHSPGK
chain 2: DIVMTQTPPSLSVSPRETASISCRASESVDSYGNSFMHWYLQKPGQSPQLLIYLASNLESGVSDRFSGSGSGTDFTLRISRVEANDTGVYYCQQNNEDPLTFGQGTKLEIKRNDAQPAVYLFQPSPDQLHTGSASVVCLLNSFYPKDINVKWKVDGVIQDTGIQESVTEQDKDSTYSLSSTLTMSSTEYLSHELYSCEITHKSLPSTLIKSFQRSEC
As for B2, the figures for the dissociation constant Kd in assay [1] and in assay [2] were 406 nM and 16.6 nM, respectively.

B3: anti-TGFβ antibody ZTS-4155, canine IgGB (65), N434R (antibody)
chain 1: EVQLVQSGAEVKKPGASVKVSCKTSGYTFITYWMNWVRQAPGAGLDWMGQIFPASGSTNYNEMFEGRVTLTADTSTSTAYMELSSLRAGDIAVYYCARGDGNYALDAMDYWGQGTLVTVSSASTTAPSVFPLAPSCGSTSGSTVALACLVSGYFPEPVTVSWNSGSLTSGVHTFPSVLQSSGLYSLSSMVTVPSSRWPSETFTCNVAHPASKTKVDKPVPKRENGRVPRPPDCPKCPAPEMLGGPSVFIFPPKPKDTLLIARTPEVTCVVVDLDPEDPEVQISWFVDGKQMQTAKTQPREEQFNGTYRVVSVLPIGHQDWLKGKQFTCKVNNKALPSPIERTISKARGQAHQPSVYVLPPSREELSKNTVSLTCLIKDFFPPDIDVEWQSNGQQEPESKYRTTPPQLDEDGSYFLYSKLSVDKSRWQRGDTFICAVMHEALHRHYTQESLSHSPGK
chain 2: DIVMTQTPPSLSVSPRETASISCRASESVDSYGNSFMHWYLQKPGQSPQLLIYLASNLESGVSDRFSGSGSGTDFTLRISRVEANDTGVYYCQQNNEDPLTFGQGTKLEIKRNDAQPAVYLFQPSPDQLHTGSASVVCLLNSFYPKDINVKWKVDGVIQDTGIQESVTEQDKDSTYSLSSTLTMSSTEYLSHELYSCEITHKSLPSTLIKSFQRSEC
In the case of B3, the Kd – broadly, the equilibrium constant for the complex coming apart – in assay [1] stood at 285 nM; in assay [2] it was 2.7 nM.

B4: anti-TGFβ antibody ZTS-4155, canine IgGB (65), N434Q (antibody)
chain 1: EVQLVQSGAEVKKPGASVKVSCKTSGYTFITYWMNWVRQAPGAGLDWMGQIFPASGSTNYNEMFEGRVTLTADTSTSTAYMELSSLRAGDIAVYYCARGDGNYALDAMDYWGQGTLVTVSSASTTAPSVFPLAPSCGSTSGSTVALACLVSGYFPEPVTVSWNSGSLTSGVHTFPSVLQSSGLYSLSSMVTVPSSRWPSETFTCNVAHPASKTKVDKPVPKRENGRVPRPPDCPKCPAPEMLGGPSVFIFPPKPKDTLLIARTPEVTCVVVDLDPEDPEVQISWFVDGKQMQTAKTQPREEQFNGTYRVVSVLPIGHQDWLKGKQFTCKVNNKALPSPIERTISKARGQAHQPSVYVLPPSREELSKNTVSLTCLIKDFFPPDIDVEWQSNGQQEPESKYRTTPPQLDEDGSYFLYSKLSVDKSRWQRGDTFICAVMHEALHQHYTQESLSHSPGK
chain 2: DIVMTQTPPSLSVSPRETASISCRASESVDSYGNSFMHWYLQKPGQSPQLLIYLASNLESGVSDRFSGSGSGTDFTLRISRVEANDTGVYYCQQNNEDPLTFGQGTKLEIKRNDAQPAVYLFQPSPDQLHTGSASVVCLLNSFYPKDINVKWKVDGVIQDTGIQESVTEQDKDSTYSLSSTLTMSSTEYLSHELYSCEITHKSLPSTLIKSFQRSEC
With B4, the equilibrium dissociation constant (Kd) in assay [1] came to 50.2 nM; in assay [2] it was 11.8 nM.

B5: anti-TGFβ antibody ZTS-4155, canine IgGB (65), N434V (antibody)
chain 1: EVQLVQSGAEVKKPGASVKVSCKTSGYTFITYWMNWVRQAPGAGLDWMGQIFPASGSTNYNEMFEGRVTLTADTSTSTAYMELSSLRAGDIAVYYCARGDGNYALDAMDYWGQGTLVTVSSASTTAPSVFPLAPSCGSTSGSTVALACLVSGYFPEPVTVSWNSGSLTSGVHTFPSVLQSSGLYSLSSMVTVPSSRWPSETFTCNVAHPASKTKVDKPVPKRENGRVPRPPDCPKCPAPEMLGGPSVFIFPPKPKDTLLIARTPEVTCVVVDLDPEDPEVQISWFVDGKQMQTAKTQPREEQFNGTYRVVSVLPIGHQDWLKGKQFTCKVNNKALPSPIERTISKARGQAHQPSVYVLPPSREELSKNTVSLTCLIKDFFPPDIDVEWQSNGQQEPESKYRTTPPQLDEDGSYFLYSKLSVDKSRWQRGDTFICAVMHEALHVHYTQESLSHSPGK
chain 2: DIVMTQTPPSLSVSPRETASISCRASESVDSYGNSFMHWYLQKPGQSPQLLIYLASNLESGVSDRFSGSGSGTDFTLRISRVEANDTGVYYCQQNNEDPLTFGQGTKLEIKRNDAQPAVYLFQPSPDQLHTGSASVVCLLNSFYPKDINVKWKVDGVIQDTGIQESVTEQDKDSTYSLSSTLTMSSTEYLSHELYSCEITHKSLPSTLIKSFQRSEC
B5: the dissociation constant (Kd) in assay [1] was found to be 6.19 nM; in assay [2] it was 13.6 nM.

B6: anti-TGFβ antibody ZTS-4155, canine IgGB (65), N434W (antibody)
chain 1: EVQLVQSGAEVKKPGASVKVSCKTSGYTFITYWMNWVRQAPGAGLDWMGQIFPASGSTNYNEMFEGRVTLTADTSTSTAYMELSSLRAGDIAVYYCARGDGNYALDAMDYWGQGTLVTVSSASTTAPSVFPLAPSCGSTSGSTVALACLVSGYFPEPVTVSWNSGSLTSGVHTFPSVLQSSGLYSLSSMVTVPSSRWPSETFTCNVAHPASKTKVDKPVPKRENGRVPRPPDCPKCPAPEMLGGPSVFIFPPKPKDTLLIARTPEVTCVVVDLDPEDPEVQISWFVDGKQMQTAKTQPREEQFNGTYRVVSVLPIGHQDWLKGKQFTCKVNNKALPSPIERTISKARGQAHQPSVYVLPPSREELSKNTVSLTCLIKDFFPPDIDVEWQSNGQQEPESKYRTTPPQLDEDGSYFLYSKLSVDKSRWQRGDTFICAVMHEALHWHYTQESLSHSPGK
chain 2: DIVMTQTPPSLSVSPRETASISCRASESVDSYGNSFMHWYLQKPGQSPQLLIYLASNLESGVSDRFSGSGSGTDFTLRISRVEANDTGVYYCQQNNEDPLTFGQGTKLEIKRNDAQPAVYLFQPSPDQLHTGSASVVCLLNSFYPKDINVKWKVDGVIQDTGIQESVTEQDKDSTYSLSSTLTMSSTEYLSHELYSCEITHKSLPSTLIKSFQRSEC
Regarding B6, the Kd in assay [1] was determined as 162 nM; in assay [2], 2.11 nM.

B7: anti-TGFβ antibody ZTS-4155, canine IgGB (65), N434C (antibody)
chain 1: EVQLVQSGAEVKKPGASVKVSCKTSGYTFITYWMNWVRQAPGAGLDWMGQIFPASGSTNYNEMFEGRVTLTADTSTSTAYMELSSLRAGDIAVYYCARGDGNYALDAMDYWGQGTLVTVSSASTTAPSVFPLAPSCGSTSGSTVALACLVSGYFPEPVTVSWNSGSLTSGVHTFPSVLQSSGLYSLSSMVTVPSSRWPSETFTCNVAHPASKTKVDKPVPKRENGRVPRPPDCPKCPAPEMLGGPSVFIFPPKPKDTLLIARTPEVTCVVVDLDPEDPEVQISWFVDGKQMQTAKTQPREEQFNGTYRVVSVLPIGHQDWLKGKQFTCKVNNKALPSPIERTISKARGQAHQPSVYVLPPSREELSKNTVSLTCLIKDFFPPDIDVEWQSNGQQEPESKYRTTPPQLDEDGSYFLYSKLSVDKSRWQRGDTFICAVMHEALHCHYTQESLSHSPGK
chain 2: DIVMTQTPPSLSVSPRETASISCRASESVDSYGNSFMHWYLQKPGQSPQLLIYLASNLESGVSDRFSGSGSGTDFTLRISRVEANDTGVYYCQQNNEDPLTFGQGTKLEIKRNDAQPAVYLFQPSPDQLHTGSASVVCLLNSFYPKDINVKWKVDGVIQDTGIQESVTEQDKDSTYSLSSTLTMSSTEYLSHELYSCEITHKSLPSTLIKSFQRSEC
For B7, in assay [1], binding was put at a Kd of 270 nM. In other words, the sub-micromolar range.

B8: anti-TGFβ antibody ZTS-4155, canine IgGB (65), N434H (antibody)
heavy: EVQLVQSGAEVKKPGASVKVSCKTSGYTFITYWMNWVRQAPGAGLDWMGQIFPASGSTNYNEMFEGRVTLTADTSTSTAYMELSSLRAGDIAVYYCARGDGNYALDAMDYWGQGTLVTASTTAPSVFPLAPSCGSTSGSTVALACLVSGYFPEPVTVSWNSGSLTSGVHTFPSVLQSSGLYSLSSMVTVPSSRWPSETFTCNVAHPASKTKVDKPVPKRENGRVPRPPDCPKCPAPEMLGGPSVFIFPPKPKDTLLIARTPEVTCVVVDLDPEDPEVQISWFVDGKQMQTAKTQPREEQFNGTYRVVSVLPIGHQDWLKGKQFTCKVNNKALPSPIERTISKARGQAHQPSVYVLPPSREELSKNTVSLTCLIKDFFPPDIDVEWQSNGQQEPESKYRTTPPQLDEDGSYFLYSKLSVDKSRWQRGDTFICAVMHEALHHHYTQESLSHSPGK
VL: DIVMTQTPPSLSVSPRETASISCRASESVDSYGNSFMHWYLQKPGQSPQLLIYLASNLESGVSDRFSGSGSGTDFTLRISRVEANDTGVYYCQQNNEDPLTFGQ
notes: See m9; also called mAb3 N434H
B8: the values for the Kd in assay [1] and in assay [2] were 38 nM and 4.8 nM, respectively.
